Experiment [1] concerns the target CD19-targeting first-generation 19z1 CAR. Description: flow cytometry on CAR+ PG13 fibroblasts, FL2-H PE against FL1-H FITC (no staining), live gate, 7308 events; lower left panel, sample line '19z1-19E9-PE 1 to 1000', same position as 19z1 in FIG. 18A and 18C; first panel (PG13 sample line) in the same gate: 0. In general terms: In flow cytometry, cells or beads pass a laser one at a time.

Experiment [2] deals with first-generation PSMA-targeting Pz1 CAR. The experiment can be described thus: flow cytometry on CAR+ PG13 fibroblasts, FL2-H PE against FL1-H FITC (no staining), live gate, 9029 events; lower right panel, taken as Pz1 from the panel order of FIG. 18A and 18C; first panel (PG13 sample line) in the same gate: 0.
Experiment [3] has as its target CD19-targeting first-generation 19z1 CAR. Description: flow cytometry on PG13 fibroblasts expressing the 19z1 CAR (panel title '19z1', sample line '19z 1-12D11-H'), 12D11 detected with anti-hamster IgG FITC, FL1-H FITC against FL2-H PE, live gate, 7334 events; parental PG13 cells in the same gate: 0.85.
Experiment [4] deals with first-generation PSMA-targeting Pz1 CAR. The experiment can be described thus: flow cytometry on PG13 fibroblasts expressing the Pz1 CAR (panel title 'PZ1', sample line 'PZ1-12D11-H'), 12D11 detected with anti-hamster IgG FITC, FL1-H FITC against FL2-H PE, live gate, 9102 events; parental PG13 cells in the same gate: 0.85.
Experiment [5] has as its target CD19-targeting second-generation 1928z CAR. Description: flow cytometry on PG13 fibroblasts expressing the 1928z CAR (panel title '19-28z1 cells', sample line '1928z 1-12D11-H'), 12D11 detected with anti-hamster IgG FITC, FL1-H FITC against FL2-H PE, live gate, 9569 events; parental PG13 cells in the same gate: 0.85.

B1: 19E3 monoclonal antibody (antibody, V domains shown)
VH: EVQLVESGGGLVQTGKSLKLSCEASGFTFSDFDMNWVRQAPGKGLEWVAYINGGSGVIFYADAVKGRFTISRDNAKNLLFLQMNNLKSEDSAMYYCAREELGRRYYFDYWGQGTMVTVSS
VL: SQPVLTQSPSASASLSGSVKLTCTLSSEHSSYNIAWYQQHPDKAPKYVMYLKSDGSHFKGDGIPDRFSGSSSGAHRYLSISNVQSEDDATYFCGAGYTISGQYGYVFDSGTQLTVLG
As to B1, the gate frequency (percent of live events in the PE-positive gate) was determined as 99.2 in experiment [1] and 0.011 in experiment [2].

B2: 12D11 monoclonal antibody (antibody, V domains shown)
VH: AVRLLESGGGLVKPEGALKLSCVASGFDLSDYFMGWVRQAPGKGLEWVAHIYPQSYDYATYYSGSVQGRFTISRDDSRSMVYLQMNNLRTEDTATYYCTKDGDVGFWGQGTMVTVSS
VL: DIQVTQSPTLLSASLGDKVTINCLASQDISNELNWYQQKSGQSPTLLIYNGKNLQSGVPSRFSGQYSGRSFTISINNVEPEDVATYFCLQHYSFPLTFGDGSKLEMKR
For B2, the results for the gate frequency (percent of live events in the FITC-positive gate) in experiment [3], in experiment [4] and in experiment [5] were 96.3, 76.4 and 67.9, respectively.

Values taken from patent US20260193378A1.
